Here are results for 2 substances from publication PMC10543594.

For assay [1], the target named is SARS-CoV-2 Alpha variant spike ectodomain fused to resistin (SARS-CoV-2 | human) (UniProt P0DTC2). Nature of the assay: SEC-MALS.
Assay [2] addresses SARS-CoV-2 Delta spike ectodomain without trimerization domain (SARS-CoV-2) (UniProt P0DTC2).

In general, stoichiometry N refers to the number of molecules, sites or subunits per partner or assembly. “SARS-CoV-2 Alpha variant spike ectodomain fused to resistin (from UniProt P0DTC2 14-1213)”: the stoichiometry N in assay [1] is 6.

For the substance “SARS-CoV-2 Delta spike ectodomain without trimerization domain (from UniProt P0DTC2 14-1213) (domain or fragment)”, the percent trimeric in assay [2] was 30 to 50%.
